# Reference: the supplement of paper PMC10567573
# B1: MATN2 (parent)
# chain: FIVDILQFLDIGPDVTRVGLLQYG
# Variants of: B1
# Experiment: protein stability index of a GFP-peptide fusion (GPS, HEK-293T) (PSI 1-6); higher = more stable
# Details: c terminus: a fixed tail appended
# 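Also: lentivirally expressed fusions sorted by FACS into six bins by GFP to DsRed ratio, PSI derived from sequencing read proportions per bin multiplied by bin number.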
row,Variant,protein stability index
1,FIVDILQFLDIGPSVTRVGLLQYG [D14S],2.67
2,FIVDILQFLDIGPAVTRVGLLQYG [D14A],2.27
3,FIVDILQFLDIGPHVTRVGLLQYG [D14H],2.17
4,FIVDILQFLDIGPIVTRVGLLQYG [D14I],3.22
5,FIVDILQFLDIGPEVTRVGLLQYG [D14E],4.71
6,FIVDILQFLDIGPPVTRVGLLQYG [D14P],3.06
7,FIVDILQFLDIGPNVTRVGLLQYG [D14N],3.04
8,FIVDILQFLDIGPYVTRVGLLQYG [D14Y],2.6
9,FIVDILQFLDIGPDVYRVGLLQYG [T16Y],4.05
10,FIVDILQFLDIGPDVPRVGLLQYG [T16P],2.42
11,FIVDILQFLDIGPDVWRVGLLQYG [T16W],3.52
12,FIVDILQFLDIGPDVLRVGLLQYG [T16L],3.03
13,FIVDILQFLDIGPDVMRVGLLQYG [T16M],1.06
14,FIVDILQFLDIGPDVDRVGLLQYG [T16D],2.7
15,FIVDILQFLDIGPDVGRVGLLQYG [T16G],2.19
16,FIVDILQFLDIGPDVRRVGLLQYG [T16R],2.33
17,FIVDILQFLDIGPDVTRVDLLQYG [G19D],3.21
18,FIVDILQFLDIGPDVTRVILLQYG [G19I],2.67
19,FIVDILQFLDIGPDVTRVPLLQYG [G19P],2.58
20,FIVDILQFLDIGPDVTRVTLLQYG [G19T],3.15
21,FIVDILQFLDIGPDVTRVQLLQYG [G19Q],2.7
22,FIVDILQFLDIGPDVTRVALLQYG [G19A],2.26
23,FIVDILQFLDIGPDVTRVVLLQYG [G19V],2.69
24,FIVDILQFLDIGPDVTRVWLLQYG [G19W],2.62

row,Variant,protein stability index
1,FIVDILQFLDIGPDVTRVHLLQYG [G19H],3.51
2,FIVDILQFLDIGPDVTRVLLLQYG [G19L],3.83
3,FIVDILQFLDIGPDVTRVSLLQYG [G19S],2.33
4,FIVDILQFLDIGPDVTRVCLLQYG [G19C],1.32
5,FIVDILQFLDIGPDVTRVMLLQYG [G19M],3.24
6,FIVDILQFLDIGPDVTRVELLQYG [G19E],3.93
7,FIVDILQFLDIGPDVTRVGLLFYG [Q22F],3.25
8,FIVDILQFLDIGPDVTRVGLLAYG [Q22A],2.48
9,FIVDILQFLDIGPDVTLVGLLQYG [R17L],3.37
10,FIVDILQFLDIGPDVTCVGLLQYG [R17C],2.86
11,FIVDILQFLDIGPDVTYVGLLQYG [R17Y],3.22
12,FIVDILQFLDIGPDVTFVGLLQYG [R17F],2.23
13,FIVDILQFLDIGPDVTSVGLLQYG [R17S],1.03
14,FIVDILQFLDIGPDVTAVGLLQYG [R17A],3.59
15,FIVDILQFLDIGPDVTMVGLLQYG [R17M],2.05
16,FIVDILQFLDIGPDVTIVGLLQYG [R17I],2.77
17,FIVDILQFLDIGPDVTNVGLLQYG [R17N],2.75
18,FIVDILQFLDIGPDVTVVGLLQYG [R17V],3.47
19,FIVDILQFLDIGPDVTGVGLLQYG [R17G],2.07
20,FIVDILQFLDIGPDVTRVGLEQYG [L21E],3.73
21,FIVDILQFLDIGPDVTRVGLWQYG [L21W],3.27
22,FIVDILQFLDIGPDVTRVGLSQYG [L21S],2.57
23,FIVDILQFLDIGPDVTRVGLCQYG [L21C],3.73
24,FIVDILQFLDIGPDVTRVGLTQYG [L21T],2.95

row,Variant,protein stability index
1,FIVDILQFLDIGPDVTRVGLAQYG [L21A],2.8
2,FIVDILQFLDIGPDVTRVGLGQYG [L21G],3.3
3,FIVDILQFLDIGPDVTRVGLHQYG [L21H],2.01
4,FIVDILQFLDIGPDVTRVGLFQYG [L21F],2.62
5,FIVDILQFLDIGPDVTRVGLPQYG [L21P],4.3
6,FIVDILQFLDIGPDVTRVGLIQYG [L21I],2.79
7,FIVDILQFLDIGPDVTRVGLKQYG [L21K],2.13
8,FIVDILQFLDIGPDVTRVGGLQYG [L20G],3.72
9,FIVDILQFLDIGPDVTRVGVLQYG [L20V],4
10,FIVDILQFLDIGPDVTRVGRLQYG [L20R],1.79
11,FIVDILQFLDIGPDVTRVGNLQYG [L20N],3.71
12,FIVDILQFLDIGPDVTRVGHLQYG [L20H],2.86
13,FIVDILQFLDIGPDVTRVGWLQYG [L20W],3.97
14,FIVDILQFLDIGPDVTRVGCLQYG [L20C],1.87
15,FIVDILQFLDIGPDVTRVGALQYG [L20A],2.25
16,FIVDILQFLDIGPDVTRVGYLQYG [L20Y],3.45
17,FIVDILQFLDIGPDVTRVGFLQYG [L20F],2.92
18,FIVDILQFLDIGPDVTRNGLLQYG [V18N],2.16
19,FIVDILQFLDIGPDVTRMGLLQYG [V18M],2.55
20,FIVDILQFLDIGPDVTRRGLLQYG [V18R],1.82
21,FIVDILQFLDIGPDVTRCGLLQYG [V18C],2.58
22,FIVDILQFLDIGPDVTRQGLLQYG [V18Q],1.8
23,FIVDILQFLDIGPDVTRKGLLQYG [V18K],2.05
24,FIVDILQFLDIGPDVTRFGLLQYG [V18F],3.25

row,Variant,protein stability index
1,FIVDILQFLDIGPDVTRPGLLQYG [V18P],3.38
2,FIVDILQFLDIGPDVTRSGLLQYG [V18S],3.5
3,FIVDILQFLDIGPDVTRDGLLQYG [V18D],2.04
4,FIVDILQFLDIGQDVTRVGLLQYG [P13Q],4
5,FIVDILQFLDIGHDVTRVGLLQYG [P13H],2.73
6,FIVDILQFLDIGSDVTRVGLLQYG [P13S],2.69
7,FIVDILQFLDIGIDVTRVGLLQYG [P13I],2.79
8,FIVDILQFLDIGNDVTRVGLLQYG [P13N],3.21
9,FIVDILQFLDIGVDVTRVGLLQYG [P13V],2.93
10,FIVDILQFLDIGWDVTRVGLLQYG [P13W],2.61
11,FIVDILQFLDIGKDVTRVGLLQYG [P13K],2.15
12,FIVDILQFLDIGMDVTRVGLLQYG [P13M],2.4
13,FIVDILQFLDIGPDYTRVGLLQYG [V15Y],3.39
14,FIVDILQFLDIGPDPTRVGLLQYG [V15P],3.2
15,FIVDILQFLDIGPDATRVGLLQYG [V15A],2.88
16,FIVDILQFLDIGPDFTRVGLLQYG [V15F],3.1
17,FIVDILQFLDIGPDNTRVGLLQYG [V15N],2.49
18,FIVDILQFLDIGPDDTRVGLLQYG [V15D],4.47
19,FIVDILQFLDIGPDWTRVGLLQYG [V15W],2.06
20,FIVDILQFLDIGPDMTRVGLLQYG [V15M],4.35
21,FIVDILQFLDIGPDLTRVGLLQYG [V15L],1.88
22,FIVDILQFLDIGPDITRVGLLQYG [V15I],2.16
